Data from PMC9352680, “A comprehensive thermodynamic model for RNA binding by the Saccharomyces cerevisiae Pumilio protein PUF4”.

T1: PUF4 RNA-binding domain (Saccharomyces cerevisiae, UniProt P25339 537-888)
T1 sequence: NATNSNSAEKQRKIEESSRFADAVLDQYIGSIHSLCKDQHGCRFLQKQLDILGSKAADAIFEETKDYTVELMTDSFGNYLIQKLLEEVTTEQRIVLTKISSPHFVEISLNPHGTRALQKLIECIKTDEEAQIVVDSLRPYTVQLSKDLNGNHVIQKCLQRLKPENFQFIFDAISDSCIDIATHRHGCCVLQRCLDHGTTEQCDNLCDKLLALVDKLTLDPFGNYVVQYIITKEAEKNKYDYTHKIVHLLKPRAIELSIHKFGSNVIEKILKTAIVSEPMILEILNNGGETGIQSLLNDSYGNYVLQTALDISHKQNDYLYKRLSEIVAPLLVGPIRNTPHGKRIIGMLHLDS


Molecular target: T1, PUF4 RNA-binding domain
Assay: Mg; RNA-MaP; 20 mM Na-HEPES pH 7.4, 30 mM KOAc, 0.75 mM MgCl2, 0.1% Tween-20, 5% glycerol, 0.1 mg/mL BSA, 2 mM DTT; 25 C; 0.0125-409.6 nM protein
Conditions: tags: N-His6-TEV cleaved; C-SNAP kept, Cy3B-labelled; label: tethered on chip by stalled RNA polymerase

| Binder | Kd |
| --- | --- |
| Ic_S2_P3E.1_K3.1_C3.1_H3.1_A3.1_[T5A]_[A6T]_F3.1_[A8C]_T3.1 (ssRNA) RNA: UUUGAUUAAUAUGAUAUCGUUCUUUCUUGUAAUUCUUCUUUCUCGAUAUCAUAUUAAUCUUU | 120 nM |
| Ic_S2_P3E.1_K3.1_C3.1_H3.1_A3.1_[T5A]_[A6T]_F3.1_[T7G]_[A8T]_T3.1 (ssRNA) RNA: UUUGAUUAAUAUGAUAUCGUUCUUUCUUGUAAUGUUUCUUUCUCGAUAUCAUAUUAAUCUUU | 174 nM |
| Ic_S2_P3E.1_K3.1_C3.1_H3.1_A3.1_[A6G]_F3.1_[T7G]_[A8C]_T3.1 (ssRNA) RNA: UUUGAUUAAUAUGAUAUCGUUCUUUCUUGUAUGGCUUCUUUCUCGAUAUCAUAUUAAUCUUU | 950 nM |
| Ic_S2_P3E.1_K3.1_C3.1_H3.1_A3.1_[T5C]_F3.1_[T7A]_[A8C]_T3.1 (ssRNA) RNA: UUUGAUUAAUAUGAUAUCGUUCUUUCUUGUACAACUUCUUUCUCGAUAUCAUAUUAAUCUUU | 23.8 nM |
| Ic_S2_P3E.1_K3.1_C3.1_H3.1_A3.1_[T5C]_F3.1_[T7G]_[A8T]_T3.1 (ssRNA) RNA: UUUGAUUAAUAUGAUAUCGUUCUUUCUUGUACAGUUUCUUUCUCGAUAUCAUAUUAAUCUUU | 13.1 nM |
| Ic_S2_P3E.1_K3.1_C3.1_H3.1_A3.1_[T5A]_[A6T]_F3.1_[T7A]_[A8G]_T3.1 (ssRNA) RNA: UUUGAUUAAUAUGAUAUCGUUCUUUCUUGUAAUAGUUCUUUCUCGAUAUCAUAUUAAUCUUU | 1530 nM |
| Ic_S2_P3E.1_K3.1_C3.1_H3.1_A3.1_[T5A]_[A6C]_F3.1_[T7C]_[A8T]_T3.1 (ssRNA) RNA: UUUGAUUAAUAUGAUAUCGUUCUUUCUUGUAACCUUUCUUUCUCGAUAUCAUAUUAAUCUUU | 23.5 nM |
| Ic_S2_P3E.1_K3.1_C3.1_H3.1_A3.1_[T5A]_[A6C]_F3.1_[T7A]_[A8G]_T3.1 (ssRNA) RNA: UUUGAUUAAUAUGAUAUCGUUCUUUCUUGUAACAGUUCUUUCUCGAUAUCAUAUUAAUCUUU | 947 nM |
| Ic_S2_P3E.1_K3.1_C3.1_H3.1_A3.1_[T5C]_F3.1_[T7C]_[A8C]_T3.1 (ssRNA) RNA: UUUGAUUAAUAUGAUAUCGUUCUUUCUUGUACACCUUCUUUCUCGAUAUCAUAUUAAUCUUU | 17.3 nM |
| Ic_S2_P3E.1_K3.1_C3.1_H3.1_A3.1_[A6C]_F3.1_[T7C]_[A8T]_T3.1 (ssRNA) RNA: UUUGAUUAAUAUGAUAUCGUUCUUUCUUGUAUCCUUUCUUUCUCGAUAUCAUAUUAAUCUUU | 13.7 nM |
| Ic_S2_P3E.1_K3.1_C3.1_H3.1_A3.1_[T5C]_F3.1_[T7C]_[A8G]_T3.1 (ssRNA) RNA: UUUGAUUAAUAUGAUAUCGUUCUUUCUUGUACACGUUCUUUCUCGAUAUCAUAUUAAUCUUU | 31.5 nM |
| Ic_S2_P3E.1_K3.1_C3.1_H3.1_A3.1_[A6C]_F3.1_[T7G]_[A8T]_T3.1 (ssRNA) RNA: UUUGAUUAAUAUGAUAUCGUUCUUUCUUGUAUCGUUUCUUUCUCGAUAUCAUAUUAAUCUUU | 114 nM |
| Ic_S2_P3E.1_K3.1_C3.1_H3.1_A3.1_[A6G]_F3.1_[T7C]_[A8C]_T3.1 (ssRNA) RNA: UUUGAUUAAUAUGAUAUCGUUCUUUCUUGUAUGCCUUCUUUCUCGAUAUCAUAUUAAUCUUU | 585 nM |
| Ic_S2_P3E.1_K3.1_C3.1_H3.1_A3.1_[A6T]_F3.1_[T7C]_[A8T]_T3.1 (ssRNA) RNA: UUUGAUUAAUAUGAUAUCGUUCUUUCUUGUAUUCUUUCUUUCUCGAUAUCAUAUUAAUCUUU | 11.9 nM |
| Ic_S2_P3E.1_K3.1_C3.1_H3.1_A3.1_[A6T]_F3.1_[T7G]_[A8C]_T3.1 (ssRNA) RNA: UUUGAUUAAUAUGAUAUCGUUCUUUCUUGUAUUGCUUCUUUCUCGAUAUCAUAUUAAUCUUU | 442 nM |
| Ic_S2_P3E.1_K3.1_C3.1_H3.1_A3.1_[T5A]_[A6T]_F3.1_[T7A]_[A8C]_T3.1 (ssRNA) RNA: UUUGAUUAAUAUGAUAUCGUUCUUUCUUGUAAUACUUCUUUCUCGAUAUCAUAUUAAUCUUU | 158 nM |
| Ic_S2_P3E.1_K3.1_C3.1_H3.1_A3.1_[T5C]_F3.1_[T7A]_[A8G]_T3.1 (ssRNA) RNA: UUUGAUUAAUAUGAUAUCGUUCUUUCUUGUACAAGUUCUUUCUCGAUAUCAUAUUAAUCUUU | 1630 nM |
| Ic_S2_P3E.1_K3.1_C3.1_H3.1_A3.1_[T5C]_[A6T]_F3.1_[A8T]_T3.1 (ssRNA) RNA: UUUGAUUAAUAUGAUAUCGUUCUUUCUUGUACUUUUUCUUUCUCGAUAUCAUAUUAAUCUUU | 9.88 nM |
| Ic_S2_P3E.1_K3.1_C3.1_H3.1_A3.1_[T5A]_[A6T]_F3.1_[T7A]_[A8T]_T3.1 (ssRNA) RNA: UUUGAUUAAUAUGAUAUCGUUCUUUCUUGUAAUAUUUCUUUCUCGAUAUCAUAUUAAUCUUU | 11.6 nM |
| Ic_S2_P3E.1_K3.1_C3.1_H3.1_A3.1_[A6C]_F3.1_[T7A]_[A8G]_T3.1 (ssRNA) RNA: UUUGAUUAAUAUGAUAUCGUUCUUUCUUGUAUCAGUUCUUUCUCGAUAUCAUAUUAAUCUUU | 208 nM |
| Ic_S2_P3E.1_K3.1_C3.1_H3.1_A3.1_[T5C]_F3.1_[T7G]_[A8C]_T3.1 (ssRNA) RNA: UUUGAUUAAUAUGAUAUCGUUCUUUCUUGUACAGCUUCUUUCUCGAUAUCAUAUUAAUCUUU | 35.4 nM |
| Ic_S2_P3E.1_K3.1_C3.1_H3.1_A3.1_[T5A]_[A6C]_F3.1_[T7G]_[A8G]_T3.1 (ssRNA) RNA: UUUGAUUAAUAUGAUAUCGUUCUUUCUUGUAACGGUUCUUUCUCGAUAUCAUAUUAAUCUUU | 984 nM |
| UCUCUUUGUAUAUUCUCUCUU (ssRNA) [Ic_S1_P4E.1_K4.1_C4.1_H4.1_A4.1_F4.1_[A9C]_T4.1] | 6.17 nM |
| UCUCUUUAUAUUUAUCUCUU (ssRNA) [Ib_S1_P3E.1_K3.1_C3.1_H3.1_[G2A]_A3.1_[A6T]_F3.1_T3.1] | > 2300 nM |
